The values below come from US20130150301A1 (KAI PHARMACEUTICALS, published 2013).

Ends that are not written are not given here.

The target in test [1] is T1, human calcium-sensing receptor (CaSR) (human, UniProt P41180 20-1078).
T1 sequence (looked up): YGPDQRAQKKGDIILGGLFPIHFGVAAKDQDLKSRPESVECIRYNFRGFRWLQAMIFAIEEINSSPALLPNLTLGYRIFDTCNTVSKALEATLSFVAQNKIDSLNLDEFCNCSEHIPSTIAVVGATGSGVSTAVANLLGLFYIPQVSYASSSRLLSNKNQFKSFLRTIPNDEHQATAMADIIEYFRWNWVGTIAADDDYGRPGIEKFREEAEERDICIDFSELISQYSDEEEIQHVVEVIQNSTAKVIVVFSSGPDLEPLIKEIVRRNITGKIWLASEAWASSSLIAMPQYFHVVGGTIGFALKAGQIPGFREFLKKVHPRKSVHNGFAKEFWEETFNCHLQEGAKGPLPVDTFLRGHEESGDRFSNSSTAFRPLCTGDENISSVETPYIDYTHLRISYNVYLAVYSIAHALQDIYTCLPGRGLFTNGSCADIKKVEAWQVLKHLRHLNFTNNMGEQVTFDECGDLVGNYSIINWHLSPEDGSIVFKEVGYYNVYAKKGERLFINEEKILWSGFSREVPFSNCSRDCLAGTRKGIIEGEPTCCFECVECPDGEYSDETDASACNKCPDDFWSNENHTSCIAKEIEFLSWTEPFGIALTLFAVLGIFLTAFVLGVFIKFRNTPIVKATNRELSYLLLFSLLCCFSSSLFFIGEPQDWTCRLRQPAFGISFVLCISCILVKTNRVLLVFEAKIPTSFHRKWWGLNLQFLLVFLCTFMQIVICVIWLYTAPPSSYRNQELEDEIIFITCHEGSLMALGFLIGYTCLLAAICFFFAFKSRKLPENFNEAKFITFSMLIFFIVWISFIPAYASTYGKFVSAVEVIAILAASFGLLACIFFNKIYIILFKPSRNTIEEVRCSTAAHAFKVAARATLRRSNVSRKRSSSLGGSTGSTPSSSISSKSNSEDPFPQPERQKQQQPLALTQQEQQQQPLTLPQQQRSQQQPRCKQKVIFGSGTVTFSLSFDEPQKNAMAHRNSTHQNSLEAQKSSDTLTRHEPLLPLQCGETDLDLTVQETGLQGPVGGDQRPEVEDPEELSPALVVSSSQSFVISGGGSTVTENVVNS
Briefly: cell-based or functional assay.

The target of test [2] is T1, human calcium-sensing receptor (CaSR). Description: cell-based or functional assay. The source holds these as a separate data set.

B1: Ac-crrarrr-NH2 (SEQ ID NO: 10) (peptide)
peptide: XXXXXXX
HELM: PEPTIDE1{[ac].[dC].[dR].[dR].[dA].[dR].[dR].[dR].[am]}$$$$V2.0
SMILES: CC(=O)N[C@H](CS)C(=O)N[C@H](CCCNC(=N)N)C(=O)N[C@H](CCCNC(=N)N)C(=O)N[C@H](C)C(=O)N[C@H](CCCNC(=N)N)C(=O)N[C@H](CCCNC(=N)N)C(=O)N[C@H](CCCNC(=N)N)C(N)=O
B1: the “fold loss in in vitro potency against Ac-crrrrrr-NH2 (SEQ ID NO:6), human CaSR assay in HEK 293 cells” value in test [1] was around 2 fold.

B2: Ac-bAla-c(C)arrrar-NH2 (SEQ ID NO: 61) (peptide)
peptide: XXXXXXXX
modifications: acetylated beta-alanine (Ac-bAla) at the N-terminus; C-terminal amide; carrrar all D; L-Cys (C) attached to the side chain of the D-Cys
As for B2, in test [2], the “EC50 (IP1 production in HEK293 cells that express the human CaSR)” value (shortened to “EC50”) was 2.6 µM.

B3: Ac-cArrrAr-NH2 (SEQ ID NO: 43) (peptide)
peptide: XAXXXAX
modifications: N-terminal acetyl; C-terminal amide; D-Cys 1, L-Ala 2 and 6, D-Arg 3, 4, 5 and 7
Consider B3, for which, in test [1], the “fold decrease in potency against Ac-carrrar-NH2 (SEQ ID NO:26)” value was above 600 fold and the “fold difference in potency against the CaSR, against Ac-crrrrrr-NH2 (SEQ ID NO:6)” value (from here on “fold difference in potency … (SEQ ID NO:6)”) was above 2000 fold. Also, the “EC50” value in test [2] was above 1000 µM.

B4: Ac-crarrrr-NH2 (SEQ ID NO: 9) (peptide)
peptide: XXXXXXX
HELM: PEPTIDE1{[ac].[dC].[dR].[dA].[dR].[dR].[dR].[dR].[am]}$$$$V2.0
SMILES: CC(=O)N[C@H](CS)C(=O)N[C@H](CCCNC(=N)N)C(=O)N[C@H](C)C(=O)N[C@H](CCCNC(=N)N)C(=O)N[C@H](CCCNC(=N)N)C(=O)N[C@H](CCCNC(=N)N)C(=O)N[C@H](CCCNC(=N)N)C(N)=O
On to B4, for which the “fold loss in in vitro potency against Ac-crrrrrr-NH2 (SEQ ID NO:6), human CaSR assay in HEK 293 cells” value in test [1] is around 2 fold.

B5: Ac-c(PEG5-C)rrrrrr-NH2 (SEQ ID NO: 58) (peptide)
peptide: XXXXXXX
modifications: N-terminal acetyl; C-terminal amide; all D-residues; L-Cys carrying a 5 kDa polyethylene glycol (PEG5-C) attached to the side chain of D-Cys 1
For the molecule B5, the “EC50” value in test [2] turned out to be 0.58 µM.

B6: Ac-C(C)arrrar-NH2 (SEQ ID NO: 34) (peptide)
peptide: XXXXXXX
modifications: not fully specified; N-terminal acetyl; C-terminal amide; L-Cys 1 conjugated via a disulfide linkage to an L-Cys residue (C); residues 2-7 D
For the molecule B6, in test [2], the “EC50” value turned out to be 2.5 µM.
Regarding XGXXXGX (N-terminal acetyl; C-terminal amide; D-Cys 1, Gly 2 and 6, D-Arg 3, 4, 5 and 7) [Ac-cGrrrGr-NH2 (SEQ ID NO: 42)], the “fold reduction in potency against Ac-carrrar-NH2 (SEQ ID NO:26)” value in test [1] was below 8 fold.

B7: Ac-dHcy rrrrrr-NH2 (SEQ ID NO: 32) (peptide)
peptide: XXXXXXX
modifications: N-terminal acetyl; C-terminal amide; D-homocysteine (dHcy) at position 1; D-Arg 2-7
As for B7, in test [2], the “EC50” value was 2 µM.

B8: Ac-bAla-crrrrrr-NH2 (SEQ ID NO: 30) (peptide)
peptide: XXXXXXXX
modifications: acetylated beta-alanine (Ac-bAla) at the N-terminus; C-terminal amide; D-Cys and six D-Arg
In the case of B8, the “EC50” value in test [2] amounted to 1 µM.

B9: Ac-cygrkkrrqrrr-NH2 (SEQ ID NO: 50) (peptide)
peptide: XXXXXXXXXXXX
modifications: N-terminal acetyl; C-terminal amide; all D-residues (glycine printed in lower case)
Consider B9, for which the “EC50” value in test [2] is 2 µM.

B10: Ac-carrrrr-NH2 (SEQ ID NO: 8) (peptide)
peptide: XXXXXXX
HELM: PEPTIDE1{[ac].[dC].[dA].[dR].[dR].[dR].[dR].[dR].[am]}$$$$V2.0
SMILES: CC(=O)N[C@H](CS)C(=O)N[C@H](C)C(=O)N[C@H](CCCNC(=N)N)C(=O)N[C@H](CCCNC(=N)N)C(=O)N[C@H](CCCNC(=N)N)C(=O)N[C@H](CCCNC(=N)N)C(=O)N[C@H](CCCNC(=N)N)C(N)=O
Regarding B10, the “fold loss in in vitro potency against Ac-crrrrrr-NH2 (SEQ ID NO:6), human CaSR assay in HEK 293 cells” value in test [1] was around 2 fold.

B11: conjugate of SEQ ID NO: 46 (CPDYHDAGI) and SEQ ID NO: 47 (Ac-CYGRKKRRQRRR-NH2) (peptide)
peptide 1: CPDYHDAGI
peptide 2: Ac-CYGRKKRRQRRR-NH2
modifications: not fully specified; cysteine pairing not given here
Consider B11, for which the “EC50” value in test [2] turned out to be 21 µM.
Same read-out and setting: the figure for XXXXXXX (no N-terminal cap; C-terminal amide; all D-residues) [crrrrrr-NH2 (SEQ ID NO: 80)] is 1.1 µM; for Ac-CYGRKKRRQRRR-NH2 [Ac-CYGRKKRRQRRR-NH2 (SEQ ID NO: 47)] it is 4.5 µM.

B12: Ac-c(C)arrrar-NH2 (SEQ ID NO: 3) (peptide)
peptide: XXXXXXX
modifications: N-terminal acetyl; C-terminal amide; all seven residues D; D-Cys 1 conjugated via a disulfide linkage to an L-Cys residue (C)
Regarding B12, in test [2], the “EC50” value stood at 10 µM.

B13: Ac-c(Benzoyl)rrrrrr-NH2 (SEQ ID NO: 81) (peptide)
peptide: XXXXXXX
modifications: N-terminal acetyl; C-terminal amide; all D-residues; benzoyl attached to the side chain of D-Cys 1
For B13, the “EC50” value in test [2] is 3.6 µM.

B14: c(C)arrrar-NH2 (SEQ ID NO: 60) (peptide)
peptide: XXXXXXX
modifications: no N-terminal cap; C-terminal amide; all D-residues; L-Cys (C) attached to the side chain of D-Cys 1
In the case of B14, in test [2], the “EC50” value was found to be 3.1 µM.

B15: conjugate of SEQ ID NO: 45 (CHDAPIGYD) and SEQ ID NO: 47 (Ac-CYGRKKRRQRRR-NH2) (peptide)
peptide 1: CHDAPIGYD
peptide 2: Ac-CYGRKKRRQRRR-NH2
modifications: not fully specified; cysteine pairing not given here; also: further groups not given here
In the case of B15, the “EC50” value in test [2] came out at 21 µM.

B16: Ac-caaarrrrrr-NH2 (SEQ ID NO: 77) (peptide)
peptide: XXXXXXXXXX
HELM: PEPTIDE1{[ac].[dC].[dA].[dA].[dA].[dR].[dR].[dR].[dR].[dR].[dR].[am]}$$$$V2.0
SMILES: CC(=O)N[C@H](CS)C(=O)N[C@H](C)C(=O)N[C@H](C)C(=O)N[C@H](C)C(=O)N[C@H](CCCNC(=N)N)C(=O)N[C@H](CCCNC(=N)N)C(=O)N[C@H](CCCNC(=N)N)C(=O)N[C@H](CCCNC(=N)N)C(=O)N[C@H](CCCNC(=N)N)C(=O)N[C@H](CCCNC(=N)N)C(N)=O
As for B16, in test [2], the “EC50” value is 4.6 µM.

B17: Ac-CaRrRaR-NH2 (SEQ ID NO: 44) (peptide)
peptide: CXRXRXR
modifications: N-terminal acetyl; C-terminal amide; L-Cys 1, D-Ala 2, L-Arg 3, D-Arg 4, L-Arg 5, D-Ala 6, L-Arg 7
Consider B17, for which, in test [1], the “fold difference in potency against Ac-carrrar-NH2 (SEQ ID NO:26)” value was below 4 fold and the “fold difference in potency … (SEQ ID NO:6)” value is 10 fold. Besides, the “EC50” value in test [2] was 5.6 µM.

B18: Ac-c(Ac-C)arrrar-NH2 (SEQ ID NO: 55) (peptide)
peptide: XXXXXXX
modifications: N-terminal acetyl; C-terminal amide; all D-residues; N-acetylated L-Cys (Ac-C) attached to the side chain of D-Cys 1
For B18, the “EC50” value in test [2] turned out to be 21 µM.
On to XXXXXXX (N-terminal acetyl; C-terminal amide; all D-residues) [Ac-carrrar-NH2 (SEQ ID NO: 26)], for which the “fold difference in potency … (SEQ ID NO:6)” value in test [1] was around 3 fold.

B19: Ac-c(acetyl)rrrrrr-NH2 (SEQ ID NO: 82) (peptide)
peptide: XXXXXXX
modifications: N-terminal acetyl; C-terminal amide; all D-residues; acetyl attached to the side chain of D-Cys 1
Regarding B19, in test [2], the “EC50” value worked out at 4.1 µM.
Still for that read-out and setting: the figure for XXXXXXX (N-terminal acetyl; free C-terminal acid (-OH); all D-residues) [Ac-carrrar-OH (SEQ ID NO: 74)] is 31 µM.
Regarding XXXXX (N-terminal acetyl; C-terminal amide; all D-residues) [Ac-crrrr-NH2 (SEQ ID NO: 4)], the “shift in potency (HEK-293 in vitro cell assay), 4 against 5 arginine subunits” value in test [1] was above 10 fold. Also, the “EC50” value in test [2] turned out to be 16 µM.

B20: Ac-c(GS)rrrrrr-NH2 (SEQ ID NO: 53) (peptide)
peptide: XXXXXXX
modifications: not fully specified; N-terminal acetyl; C-terminal amide; all D-residues; oxidized glutathione (GS) attached to the side chain of D-Cys 1
On to B20, for which the “EC50” value in test [2] turned out to be 7.8 µM.
Still for that read-out and setting: the figure for Ac-CARRRAR-NH2 [Ac-CARRRAR-NH2 (SEQ ID NO: 75)] is 58 µM.

B21: Ac-c(Mpa)arrrar-NH2 (SEQ ID NO: 56) (peptide)
peptide: XXXXXXX
modifications: N-terminal acetyl; C-terminal amide; all D-residues; mercaptopropionic acid (Mpa) attached to the side chain of D-Cys 1
On to B21, for which the “EC50” value in test [2] came out at 21 µM.

B22: Ac-crrrrra-NH2 (SEQ ID NO: 13) (peptide)
peptide: XXXXXXX
HELM: PEPTIDE1{[ac].[dC].[dR].[dR].[dR].[dR].[dR].[dA].[am]}$$$$V2.0
SMILES: CC(=O)N[C@H](CS)C(=O)N[C@H](CCCNC(=N)N)C(=O)N[C@H](CCCNC(=N)N)C(=O)N[C@H](CCCNC(=N)N)C(=O)N[C@H](CCCNC(=N)N)C(=O)N[C@H](CCCNC(=N)N)C(=O)N[C@H](C)C(N)=O
On to B22, for which the “fold loss in in vitro potency against Ac-crrrrrr-NH2 (SEQ ID NO:6), human CaSR assay in HEK 293 cells” value in test [1] is around 2 fold.
Consider Ac-YGRKKRRQRRR-NH2 [Ac-YGRKKRRQRRR-NH2 (SEQ ID NO: 48)], for which the “EC50” value in test [2] stood at 16 µM.
